Data reported in publication PMC5774762.

Key:
[1] = target: SUMO1 conjugated to agarose beads (UniProt P63165); assay: pull-down; SUMO1 beads, binding of KmUTAG over time (min); percent of total protein bound
[2] = target: SUMO1 conjugated to agarose beads (UniProt P63165); assay: pull-down; SUMO1 beads, with TCEP, at 42°C; bound UTAG quantitated from the stained gel against room temperature
[3] = target: SUMO1 conjugated to agarose beads (UniProt P63165); assay: pull-down; SUMO1 beads, 45 min in the presence of hydrogen peroxide (concentration not told); percent of total protein bound
[4] = target: SUMO1 conjugated to agarose beads (UniProt P63165); assay: pull-down; SUMO1 beads with 2.0 M urea, 5 mM TCEP; quantitated against the reaction without urea
biotinylated SUMO1 = biotinylated SUMO1 (UniProt P63165); assay: BLI; biotinylated SUMO1 on streptavidin sensors (Octet QK); UTAG as analyte 4-250 nM; 25°C; HBS-T (10 mM HEPES pH 7.4, 150 mM NaCl, 0.05% Tween 20); association 300 s, dissociation 300 s; global single-state fit
[5] = target: SUMO1 conjugated to agarose beads (UniProt P63165); assay: pull-down; SUMO1-conjugated agarose beads in buffer with hydrogen peroxide (0.6% in the text, 1% in the legend) instead of TCEP; quantitated from the stained gel
[6] = target: SUMO1 conjugated to agarose beads (UniProt P63165); assay: pull-down; SUMO1 beads with various concentrations of hydrogen peroxide (0.006% named in the text); quantitated from the stained gel
SUMO1 (Homo sapiens) = SUMO1 (Homo sapiens) (UniProt P63165); settings: cited from earlier work

percent of the protein bound after 45 minutes [1] [%] | percent of the protein bound within 15 minutes [1] [%] | percent reduction of binding at 42°C against room temperature [2] [%] | percent of the protein bound after 45 minutes in the presence of peroxide [3] [%] | percent reduction of binding in 2M urea [4] [%] | KD after elimination of the top two analyte traces (biotinylated SUMO1) [nM] | Kd (biotinylated SUMO1) [nM] | koff (biotinylated SUMO1) [s⁻¹] | kon (biotinylated SUMO1) [M⁻¹ s⁻¹] | percent of binding left in the presence of 0.6% H2O2 [5] [%] | percent reduction of binding with 0.006% peroxide [6] [%] | Substance | Kd (SUMO1 (Homo sapiens)) [nM]
70 | 50 | 25 | 60 | 23 | 8.7 | 8.7 | 0.00084 | 96000 | – | – | KmUTAG, catalytically inactive (C517S) UD domain of Kluyveromyces marxianus Ulp1, MBP/His6 fusion (from UniProt A0ABX6EQA7 1-555) (domain or fragment) | –
– | – | 87 | – | 82 | – | 2 | 4.2e-05 | 21000 | 17 | 50 | ScUTAG, catalytically inactive (C580S) UD domain of Saccharomyces cerevisiae Ulp1, MBP/His6 fusion (from UniProt Q02724 1-621) (domain or fragment) | –
– | – | – | – | – | – | – | – | – | – | – | ScUTAG (from UniProt Q02724) | 12.8
